Measurements from a protein production outcome set (Wang et al. 2014).

Test: label from the status in PepcDB records

| Sequence | protein production |
| --- | --- |
| MSANDSAVNESCHCGGCGSSGNGKFLNETPMLDQLESGPWPSFISGFKALAERTEKPMLRGVLDQLEYSYKTKMGYWKGGLVTVDGYGAGIITRYSMIKDKFPEAAEFHTMRIQPAPGLHYNTTMLRELCDIWEKYGSGIITLHGQTGDIMLQGIEQDKVQACFDELNQKGWDLGGAGAGMRTGVSCIGPGRCDNACYDNLKLHLEALKHFSPQVHRPEWNYKLKFKFSGCPNDCTNAIMRSDLAVIGTWRDSIQIDHDEVKAWIAEKGVDALVNNVINRCPTKAIRLQDGDIDISTRDCVRCMHCINAMSKALSPGKDKGIALLIGGKNTLKVGVNMGSLIVPFMKMETDEDREAFIELIEEIIDWWDDAGLDHERIGETIERVGLKQFLDGVGIEYDINQISRPRDNPYFKAKY | failed |
| MGTSSDPIQDGSDEQQKRSEIYTYEAPWHIYAMNWSVRRDKKYRLAITSLLEQYPNRVEIVQLDESNGEIRSDPNLSFEHPYPPTKTIFIPDKECQRPDLLATSSDFLRLWRIADDHSRVELKSCLNSNKNSEFCGPLTSFDWNEAEPRRIGTSSTDTTCTIWDIEREAVDTQLIAHDKEVFDIAWGGVGVFASVSADGSVRVFDLRDKEHSTIIYESSEPDTPLVRLGWNKQDPRYMATIIMDSAKVVVLDIRFPALPVVELQRHQASVNAIAWAPHSSCHICTAGDDSQALIWDISSMGQHVEGGLDPILAYTAGAEIEQLQWSSSQPDWVAIAFSTKLQILRV | failed |
| AIAITGETEPACVEDASQLAEQRNGAPVMEAGCAAVPVEANATKRGYWRQRTLHSWFIGRKPQRTCIAVDIDEVLAFFVPELCAFHNKRYGTRLQATDFHSYRFAEVWGGTDTDAIRKVHEFFRTPAFQELQPIPGAKQVLQSRLARFRFVVVTSRQLVIEQETRAWLDKHFSGIFEAIYLGNQWALHPNGEHGTGVGSAAQEPQRLFANRRRKSQVCKACGAAVLIDDLPHNLLDCSENGVFGVLFDFQGQYGWSKSPAFESKDIAVVHSWEAVGELLDRL | failed |
| MVVSVLMPTYNHERFIEQAILSFIQQQVDFDIELLIGDDCSSDNTSFIARIYAEKYPNKIHLFQYSVNRGLMHNYKYLLNQAKGKYIAILESDDIWLDPFKLHKQVEIIEKTPNCGLVFSNWIVIDADSKEVTRSQRTLKTIGYSDLLKSNMVAAVTVLFSRNMFDLYCDIDEYILRNFKTLDYPVWLSISAHSNIIYLDDYTAGYRCLSTSISNSNSYQRSMAFNQSIDAIVQYVVSKYGKGELTIKELENASKLRYLTQAFQFKKFSQAFSIAWTFHATNIKSFIIKVLPFIWLCKNRKLIGQRLK | failed |
| MIETPSLVDQYCHGVLRTELGLGTFEAQLARTEGPPAPGTTLFDTQTGFAVRRWCPPLLGLEPHCPPARYLARRRELGVMEADRRLLRGSGITTYLVDAGLPGDLTGPTEMATAADADTREIVRLELLAEQVADTSGTVESFLANLAEAVHGAAVNAVAFTSVAGVRHGLALAPEPPGPGEVRGAAARWLTGREVGGELSDPVLLRHLLWIAVASGLPLQLHAGLGEPGLRIDRTDPVLLTDFVRTTAGLGTDLVLLHGYPYHRHAAHLAGVFPHVYADSGAALVRTGARAATVLAEILELAPFGKILFSSGAQGLPELHVVAARLFREALGRVLGTWVAEGAWSPGDAQRVAAMIASGNAARVYGLE | failed |
| MPLLPHNRTALGFLLRHLIAGLTGGLVFGGLILALDISGLRSMLMASQDGLLYTLLLFFGLSVTFGGVAMGVGVMSLGEDKN | failed |
| MEVAPSFSSVLKDCAVIEGQDFVLQCSVRGTPVPRITWLLNGQPIQYARSTCEAGVAELHIQDALPEDHGTYTCLAENALGQVSCSAWVTVH | not failed |
| PHRAVVNFLLSMTNQPGINAGDRLLAVTSISFDISVLELFLPLISGASLVLADSEAAADGQALIKLAMHQDVTFIQATPSNYWLMLEAGWPSTLKLKVLCGGEALPPVLAQKLLQRSDSVWNMYGPTETTIWSAISRVTGSASTLGRP | failed |
| MPASETQGGPPPDDHTDAEPPPPLPEQSDFADAVLAAMPDPVFVFGPQNTLAWGNPPLRQAVGHSAAALRGKSLPELFGKGDAAAVEQALDAVRAGRDTATAEVALLPREGPPRPCTFTARPLSGDVGPPNCVVGIAR | failed |
| MAPRKRNPNGSGSIWQRKDGRYEARVYVPQPDGTRKRKTVYGTTWEECDTKRQELVLRDRQGIPTPTRSAKLSEWLPYWLKHYVEPRRKLSTYDKYEVQVRLYLVPLLGTRRLESLSVADVRRFITRVQNAHTAATAKESHRVLRTALTAAVREELITRNVASLVEPPRVKQREIRPWSLEETLSFLEAARSDPLYAAFVLAIAMGLRRGELGGLRWSDVDLDNRVVHVRQQTQRRRGTLYDDDPKSRRIRVVPMPALCIAPLRWHRLRQRETFARTGVAWCEAGYVFATRNGRPVEPRNVYRSFTRVAADAGLRVVRLHDARHGCATLLTAAGVAPRVIMEILGHSQISITMDVYTHVVHDTQREAISHMDRLLKRRLPTSLSGGAGSIEFP | failed |
| MAIDVCCSEASGSGISPRISFSYDLDSTDDGEVRLDSTLLDSGSEFDFCFGSSCSVQEVSPADELFSEGKILPVQIKKEESLPQTVTFRVPRSASLSSSSSSSSSSSSSSRAPEKKMRLKELLLNPESDFEDKPRGLFLQFKRSISLNYDKSRNSKGLIRSFHFLSRSNSTPNPNLDLLPKETHHPHKTHNLPKHKPPLRRSSSLSSSSVPFYSKKPLGRNSFGNGNGGVRVSPVLNFPPPAFISNVADGFFSIGSLCNGKTNTKTKL | failed |
| MFSLREYRNKADRLADFLPWAALVAPGVVLNKDGSFQRSARFRGPDLDSATPAELIATTARLNSALRRLGSGWAIFVEAVRRPAHDYPESDFPDAASALVERERAAQFAEEGAHFESAYYLTLVWMPPAEDAARAESWLYEGKAHQGVQARELLELFSDRTDRLLRLIEGFVPEAAWLDDSETLTYLHSCISTRNHRVRVPETPMHLDALLADEPLTGGLEPRLGRAHLRTLTVVGFPSATFPGILDELNSQGFAYRWSTRAIMLDKTDAAKLLGKIRRQWFAKRKSVAAILKEVMTNEASALLDSDASNKAADADAALQELGSDLQGMAYVTATVTVWDEDAAMAAEKLRLVEKVIQGRDFTVIVEGMNALEAWLGSLPGHVYANVRQPPISTLNLAHMIPLSAVWAGPEWDAHFRAPPLFYARTEGSTPFRFALHVGDVGHTLIVGPTGAGKSVLLALMALQFRRYDRAQIFAFDFGGSIRAAALACGGDWQDLGTSLAGDGAGAVMLQPLARIDEPAERNWAAEWLQAVLTGEGVTVDPATKEHLWSALTSLSTALVAERTLTGLAVLLQSQALKQALAPYCIGGPFGRLLDAEAEQLGAGKFQAFETEGLTGSAAAPAVLSYLFHRIEGRLDGSPTLIIIDEGWLVLDSPAFAAQLREWLKTLRKKNASVVFATQSLADIETSAIAPAIIESCPTRIFLPNERAIEPQILSVYRRFGLNDRQIEIIARAAPKRDYYCQSARGNRLFELGLGEVALAFAAASSKTDQLAISELTETHGTGGFARAWLRHRGLAWAADMLPPDPVPPTRSDQAAGQPKE | failed |
| MARVAIPSVGKDLSSMVSDRFARAEYFIIYDTESGNVEVVENTIADAHGTGPKVVQSLVSKGVEYLIASNVGRNAFETLKAAGVKVYRFEGGTVQEAIDAFSEGRLEELTTFTREG | not failed |
| MRWRADFLSAWAEALLRKAGADEPSAKAVAWALVEADLRGVGSHGLLRLPVYVRRLEAGLVNPSPTLPLEERGPVALLDGEHGFGPRVALKAVEAAQSLARRHGLGAVGVRRSTHFGMAGLYAEKLAREGFVAWVTTNAEPDVVPFGGREKALGTNPLAFAAPAPQGILVADLATSESAMGKVFLAREKGERIPPSWGVDREGSPTDDPHRVYALRPLGGPKGYALALLVEVLSGVLTGAGVAHGIGRMYDEWDRPQDVGHFLLALDPGRFVGKEAFLERMGALWQALKATPPAPGHEEVFLPGELEARRRERALAEGMALPERVVAELKALGERYGVPWRDDA | not failed |
| SLPHCETLLLEPIEGVLRITLNRPQSRNAMSLAMVGELRAVLAAVRDDRSVRALVLRGADGHFCAGGDIKDMAGARAAGAEAYRTLNRAFGSLLEEAQAAPQLLVALVEGAVLGGGFGLACVSDVAIAAADAQFGLPETSLGILPAQIAPFVVRRIGLTQARRLALTAARFDGREALRLGLVHFCEADADALEQRLEETLEQLRRCAPNANAATKALLLASESGELGALLDDAARQFAEAVGGAEGS | failed |
| MMKIFIRILLLFYYVFILLACGDKKESISINYILMARVTNMQTDEIKIDTPSRTIFIKLITGGDLSNVHVNLTLAKGVEMVEPANTESVYDFTKPASVTLKYKEEIITYHFIIDTEYNIVDPATLGWVKSTEWGTLPDYLAIYKSPSTLKGKNAVAYIAVADMDKNASFSVLGNATGVKTLTQFYNAESVKPAIVMNGGYFASNGATVSLLYRNNVMLAPNLQSMSRSDGTSNVAFYPTRSAFGEIENGKFEVNWVYTVSSGQTYAYPAPSPNKSGVSPMQIPSVNYPEGASIWKAKNAIGGGPVLLKNGLYKNTWEAELFDTASGIGPTSNNPRSAIGITGDNRLIFFVCEGRNKTPNVPGFTLEEVAYILRDLGCLDAMNLDGGGSSCMLVNGQETIKPSDGAQRSVTTAVAIK | failed |
| MIILPKTLYEEMLNHCLNSLPIEACGLLGGVIEDEKRIVKKVYLLTNVDQSPEHFSMDPLEQFAAVKDMRKNGWVLLGNFHSHPTTPARPSEEDKRLAFDKSLSYLILSLMDEKNPVLKSFRIYESYVEEEEIQIILEHHHHHH | failed |
| MKNRFAMMLMALLPVLVACQAKDGSADTVQSAVPAPSAPPSSSTATTTPTTPPPESARPVEASRVPSGPKPVAGTDYVVIQDGQQFQPVSGKVEVVEVFGYICPACFQFQPQIALWKAGLASDVNFVYVPAVFGGPWDDYARAFYAAETLNLQEKTHQQLYKAIHVDRTLKGERGRDTVQDIANFYAKFGVNPEQFVNTMSSFGISAKVNRAKQFAKHSQVTGTPSLIINGKYLVKGRTYDDMLRIADHLIEGERKVLGK | failed |
| MSPCGPLNLSLAGEATTCAAPWVPNTSAVPPSGASPALPIFSMTLGAVSNLLALALLAQAAGRLRRRRSAATFLLFVASLLATDLAGHVIPGALVLRLYTAGRAPAGGACHFLGGCMVFFGLCPLLLGCGMAVERCVGVTRPLLHAARVSVARARLALAAVAAVALAVALLPLARVGRYELQYPGTWCFIGLGPPGGWRQALLAGLFASLGLVALLAALVCNTLSGLALLRARWRRRSRRPPPASGPDSRRRWGAHGPRSASASSASSIASASTFFGGSRSSGSARRARAHDVEMVGQLVGIMVVSCICWSPMLVLVALAVGGWSSTSLQRPLFLAVRLASWNQILDPWVYILLRQAVLRQLLRLLPPRAGAKGGPAGLGLTPSAWEASSLRSSRHSGLSHF | failed |
| MVKNGQSKRQPWVKNLYSNREYPDNYTDASFLKDLRTNLHCRIYTFGEAIAGITVLNNQISCITGFLILYQLMLSDSVSPTTILVPSCGITGIGYLCYRGRSLSWALLGEDSKTLVTVVLFGYLFSPMLHTLTQAISTDTIYTMTFFVLLGNLIFGHYGLDVAMVSKVGNIYGYWSQAVSLNAAIFGAICLASRLPTSYHAFVLLVEAAVFFVLYPIMTEANWHAGFMLPIFAICCMALYCISRPVLYLYASTTIFINFVCPFIFVWQQQYKFNIHGPWDEAIVEENTEENLDGNL | failed |
| MKKIEIFDPAMCCPTGLCGTNINPELMRIAVVIESLKKQGIIVTRHNLRDEPQVYVSNKTVNDFLQKHGADALPITLVDGEIAVSQTYPTTKQMSEWTGVNLD | not failed |
| MSIASLIGTVGGVGYLRPAPGTWGSLAALPLAWVLHQLGGFPLLALATLGAFVAGLWATRVMTAGQTDHDPSEIVIDEVAGQFLALWALSLPAWSHGIEISALWPGWIAAFVLFRLFDITKPGPVGWADRRGDPMGVMLDDIIAGLFAAIGTALLAALSHGVLGL | failed |
